Data as given in the RNAGym collection of RNA variant scans (doi:10.1073/pnas.2313332121).
Variants at the floor of the assay were thinned out.

B1: TPR 5TU (parent)
chain: GGAUCUUCUCGAUCUAACAAAAAAGACAAAUCUGCCACAAAGCUUGAGAGCAUCUUCGGAUGCAGAGGCGGCAGCCUUCGGUGGCGCGAUAGCGCCAACGUUCUCAACUAUGACACGCAAAACGCGUGCUCCGUUGAAUGGAGUUUAUCAUG

Variants of: B1
Experiment: polymerase ribozyme fitness, log enrichment relative to wild type (log ratio); higher = more active; in vitro selection for triplet polymerase activity
How it was run: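 To select mutant libraries of each subunit of a heterodimeric triplet polymerase ribozyme, built by PCR and transcribed, each was annealed with a biotinylated primer, partner subunit and triplets, then incubated frozen at −7 °C. Extended constructs were gel-excised, captured on streptavidin beads and amplified by RT-PCR, in one round carried out in triplicate. Illumina sequencing of input and output libraries kept genotypes with ≥10 input reads and ≥1 read per output. Fitness is the base-2 logarithm of genotype enrichment relative to wild-type enrichment, from inverse-variance-weighted replicate averages.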

GGGUCUUCUCGAUCUAACAAAAAAGACAAAUCUGCCACUAAGCUUGAGAGCAUCUUCGGAUGCAGAGGCGGCAGCCUUCGGUUUCGCGAUAGCGCCAACGUUCUCAACUAUGAUACGCGAAACGCGUGCUCCGUUGAAUGGAGUUUAUCAUG [A3G A39U G83U G84U C114U A119G] and GGGUCUUCUCGAUCUAACAAAACAGGCAAAUCUGCCACAAAGCUAGAGAGCGUCUUCGAAUGCAGAGGCGGCAGCCUUCCGUGGCGCGAUAGCGCCAACGUUCUCCACUAUGACACGCAAAACGCGUGCUCCGUUGAAUGGAGUUUAUCAUG [A3G A23C A26G U45A A52G G59A G80C A106C] cannot be ordered by “polymerase ribozyme fitness (log ratio)” value: at most -4.2 for the first, at most -4.2 for the second.

Going from GGGUCUUCUCGAUCUAACAAAAAAGACAAAUCUGUCACAAAGCUUGAGAGCAUCUUCGGAUGCAGAGGCGGCAGCCUUCGGUGGCGCGAUAGCGCAAACGUUCUCCACUAUGACACGCAAAACGCGUGCUCCGUUGACUGGGGUUUAUCAUG [A3G C35U C96A A106C A138C A142G] to GGGUCUUCUCGAUCUAACAAACAAGACAAAUCUGCCACAAAGCUUGAGAGCAUCUUCGGAUGCAGAGGCGGCAGCCUUCGGUGGCGCGAUAGCGCCAACGUUCUCAACUAUGACACGCAAAACGCGUGCUCCGUUGAAUGGAGUUUAUCAUG [A3G A22C], the “polymerase ribozyme fitness (log ratio)” value rises from at most -4.2 to -0.593.

Going from GGGUCUUCUCGAUCUAACAGAAAAGACAAAUCUGCCACAAAGCUUGAGAGCAUCUUCGGAUGCAGAGGCGGCAGCCUUCGGUGGCGCGAUAGCGCCAACGUUCUCAACUAUGACACGCAAAACGCGUGCUCCGUUGAAUGGAGUUUAUCAUG [A3G A20G] to GGGUCUUCUCGAUCUAACAAAAAAGACAAAUCUGCCACAAAACUUGAGCGCAUCUUCGGAUGUAGAGGGGGCAGCCUUCGGUGGGGCGAUAGCGCCAACGUUCUCAACUAUGACCCGCAAAACGCGUGCUCCGUUGAAUGGAGUUUAUCAUG [A3G G42A A49C C63U C69G C85G A115C], the “polymerase ribozyme fitness (log ratio)” value falls from -0.654 to at most -4.2.

Compared with GGGUCUUCUCGAUCUAACAAAAAAGACAAAUCUGCCACAAAGCUUGAGAACAUCUUCGGAUGCAGAGGCGGCAGCCUUCGGUGGCGCGAUAGCGCCAACGUUCUCAACUAUGACACGCAAAACGCGUGCUCCGUUGAAUGGAGUUUAUCAUG [A3G G50A], GGGUCUUCUCGAUCUAACUAAAAAGAAAAAUCUGCCACAAAGCUUGAGAGCAUCUUCGGAUGCAGAGGCGGCAGCCUUCGGAGGCGCGAUAGGGCCAACGUUCUCAACUAGGACACGCAAAACGCGUGCUCCGUUGAAUGGAGUUUAUCAUG [A3G A19U C27A U82A C93G U111G] is lower in “polymerase ribozyme fitness (log ratio)” value: -1.39 for the first, at most -4.2 for the second.

Going from GGGUCUUCUCGAUCUAACAAAAAAGCCAAAUCUGCCACAAAGCUUGAGAGCAUCUUCGGGUGCAGAGGCGGCAGCCUUCGGUGGCGCGAUAGCGCCAACGUUCUCAACUAUGACACGCAAAACGCGUGCUCCGUUGAAUGGAGUUUAUCAUG [A3G A26C A60G] to GGCUCUUCUCGAUCUAACAAAAAAGACAAAUCUGCCACAAAGCUUGAGAGCAUCUACGGAUGCAGAGGUGGCAGCCUUCGGUGGCGCGAUUGCGCCAACGUUCUCAACUAUGACACGCAAAACGCGUGCUCCGUUGAAUGGAGUUUAUCAUG [A3C U56A C69U A91U], the “polymerase ribozyme fitness (log ratio)” value falls from -2.26 to at most -4.2.

Compared with GGGUCUUCUCGAUCUUAUAAACAACACAAAUCUGCCACAAAGUUUGAGCGCAUCUUCGGAUGCAGAGCCGGCAGCCUUCGGUGGCGCGAUAGCGCCAACGUUCUCCACUAUGACACGCAAAACGCGUGCUCCGUUGAAUGGAGUCUAUCAUG [A3G A16U C18U A22C G25C C43U A49C G68C A106C U145C], GGGUCUUCUCGAUCUAACAAAAAAGACAAAUCUGCCACAAAGCUUGAGAGCAUCUUCGGAUGCAGAGGCGGCAGCCUUCGGUGGCGCGAUAGCGCCAACGUUCUCAACUAUGACACGCAAAACGCGUGCUCCGUUGAAUGGAGUUUAUCAUG [A3G] is higher in “polymerase ribozyme fitness (log ratio)” value: at most -4.2 for the first, -0.234 for the second.

GGGUCUUCUCGAUCUAACAACAAAGACAAAUCUGCCCCAAAGCUUGAGAGCAUCUUCGGAUGUAGAGGCGGCACCCUUCGGUGGCGGGAUAGCGCCAACGUUCUCAACUAUGACACGCAAAACGCGUCCUCCGUUGAAUGAAGUUUAUCAUG [A3G A21C A37C C63U G74C C87G G128C G141A] and GGGUCUUCUCGAUCUAACAAAAAAGACAAAUCUGCCACAAAGCUUGAGAGCAUCUUAGGAUGCAGAGGCGGCAGCCUUCGGUGGCGAGAUAGCGCCAACGUUCUCAACUAUGACACGCAAAACGCGUGCUCCGUUGAAUGGAGUUUAUCAUG [A3G C57A C87A] cannot be ordered by “polymerase ribozyme fitness (log ratio)” value: at most -4.2 for the first, at most -4.2 for the second.

Compared with GGGUCUUCUCGAUCUAACAAAAAAGACAAAUCUGCCACAAAGCUUGAGAGCAUCUUCGGAUGCAGAGGCGGCAGCCUUCGGUGGAGCGAUAGCGCCAACGUUCUCAACUAUGACACGCAAAACGCGUGCUCCGUUGAAUGGAGUUUAUCAUG [A3G C85A], GGGUCUUGUCGAUCUAACAAAAAAGACAAAUCUGACACAAAGCUUGAGAGCAUCUUCGGAUGCAGAGGCGGCAGCCUUCGGUGGCGCGAGAGCGUCAACGUUCUCAACUAUGACAGGCAAAACGCGUGCUCCGUUGAAUGGAGUUUAUCAUA [A3G C8G C35A U90G C95U C116G G152A] is lower in “polymerase ribozyme fitness (log ratio)” value: -1.17 for the first, -4.12 for the second.

GGGUCUUCUCGAUCUAACGAAAAAGACUAAUCUGCCACAAAGCUUGAGAGCAUCUUCGGAUGCAGAGGCGGCAGCCUUCGGUGGCGCGAUAGCGCCAAUGUUCUCAACUAUGACACGCAAAACGCGUGCGCCGUUGAAUGGAGUUUAUCAUG [A3G A19G A28U C99U U130G] and GGGUCUUCUCAAUAUAACAAAAAAGACAAAUCUGCCACAAAGCUUGAGAGCAUCUUCGGAUGCAGAGGCGGCAGCCUUCGGUGGCGCGAUAGCGGAAACGUUGUCAACUAUGACACGCAAAACGCGUGCUCCGUUGAAUGGAGUUUAUCAUG [A3G G11A C14A C95G C96A C103G] cannot be ordered by “polymerase ribozyme fitness (log ratio)” value: at most -4.2 for the first, at most -4.2 for the second.

For GGGUCUUCUCGAUCUAACAAAAAAGACAAAUCUGCCACAAAGCUUGAGAGGCUCUUCGGAUGCAGAGGCGGCAGCCUUCGGUGUCGCGAUAGCGCCAACGGUCUCAGCUAUGACACGCAAAACGCGUGCUCCGUUGAAUGGAGUUUAUCAUG [A3G C51G A52C G84U U101G A107G], the “polymerase ribozyme fitness (log ratio)” value was at most -4.2.
